Experimental data: US20140065128A1

What was measured:
[1] = target: Human myeloma IgE (human) (UniProt P01854); assay: SPR (BIAcore 2000, 25 C): GST-EndoS (E235Q) amine-coupled to a CM5 chip, human myeloma IgE injected at 10-1.25 ug/ml; 1:1 Langmuir fit, KD from mean rate constants
[2] = target: Human IgE in whole blood of healthy volunteers (on basophils); assay: cell-based or functional assay

Row | Substance | Kd [1] [nM] | CD203c+ cells among CD123+, HLA-DR- basophils after chicken anti-IgE stimulation of whole blood (FACS); untreated blood 83% [2] [%]
1 | GST-EndoS (E235Q), enzymatically inactive form of EndoS from Streptococcus pyogenes (from UniProt Q99Y92 37-995) (enzyme) | 133 | 
2 | GST-EndoS (enzymatically active) (from UniProt Q99Y92 37-995) (enzyme) |  | 15
